Experimental findings from publication PMC7835385 are described below.

Assay [1] concerns the target myosin-7a heavy chain (Drosophila), FLAG-tagged, co-expressed with light chains (Drosophila) (UniProt Q9V3Z6). Kind of assay: co-purification (FLAG affinity chromatography) with SDS-PAGE densitometry; heavy chain and light chains co-expressed in Sf9; heavy chain captured by its FLAG tag; 150 mM NaCl, 2 mM ATP washes.
Assay [2] deals with skeletal muscle actin, filamentous (F-actin) (rabbit) (UniProt P68135).
Assay [3] has as its target full-length myosin-7a holoenzyme (Drosophila), FLAG-tagged (Drosophila) (UniProt Q9V3Z6). Kind of assay: single-molecule mass photometry; 20 nM myosin-7a or M7BP alone, or 20 nM M7BP with 10 nM myosin-7a; 150 mM NaCl, 2 mM MgCl2, 0.1 mM EGTA, 10 mM MOPS, pH 7.2; about 24 C; no actin.
Assay [4] deals with GFP-myosin-7a holoenzyme (full-length, Drosophila) (Drosophila) (UniProt Q9V3Z6). Kind of assay: BLI; Octet RED96; GFP-myosin-7a held by biotinylated GFP antibody on streptavidin sensors; 0-25 nM M7BP in solution; 150 mM NaCl, 2 mM MgCl2, 0.1 mM EGTA, 10 mM MOPS, 1% BSA, pH 7.2; 30 C; no actin. (BLI is a label-free optical method that tracks binding on a fibre tip over time.)
For assay [5] the target is unchanged. Kind of assay: single-molecule TIRF motility assay; 20 nM myosin-7a with 20 nM M7BP on surface-immobilised phalloidin-labelled actin filaments; 150 mM KCl, 20 mM MOPS, 5 mM MgCl2, 0.1 mM EGTA, 2 mM ATP, pH 7.4; co-movement and fluorophore counting of moving puncta.

Take “Drosophila calmodulin (from UniProt P62152 1-149) (natural protein)”: the stoichiometric ratio of strongly bound calmodulin to ELC/Mlc-c on the heavy chain in assay [1] was found to be 4.

Consider “M7BP (myosin-7a binding protein), protein isoform C of CG43340, full length (natural protein)”, for which the decrease in actin gliding velocity over surface-bound myosin-7a after infusion of 500 nM M7BP, 150 mM KCl in assay [2] turned out to be 50%. The stoichiometry N – broadly, a count of units in the complex or per binding partner – in assay [3] amounted to 1. In addition, in assay [4], the Kd (as a rule, the equilibrium constant for the complex coming apart) stood at 6 nM. The substance M7BP-mCherry (natural protein) had a stoichiometry N in assay [5] of 1.
